Results taken from article PMC2880403 (Journal of molecular biology, 2010).

Biological target: T1, DsbA C33S (Escherichia coli, UniProt P0AEG4 20-208, C33S)
T1 sequence (looked up): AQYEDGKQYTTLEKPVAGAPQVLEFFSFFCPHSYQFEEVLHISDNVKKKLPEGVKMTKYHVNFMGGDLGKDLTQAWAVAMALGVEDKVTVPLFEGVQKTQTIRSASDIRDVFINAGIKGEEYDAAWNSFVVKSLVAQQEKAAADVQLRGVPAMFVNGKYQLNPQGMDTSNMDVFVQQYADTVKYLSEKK
Test: absorbance titration at 500 nm

B1: His-tagged "wildtype" DsbB containing mutations of nonessential cysteines (C8A, C49V) (enzyme, Escherichia coli, UniProt P0A6M2 1-176, looked up)
chain: MLRFLNQASQGRGAWLLMAFTALALELTALWFQHVMLLKPCVLCIYERVALFGVLGAALIGAIAPKTPLRYVAMVIWLYSAFRGVQLTYEHTMLQLYPSPFATCDFMVRFPEWLPLDKWVPQVFVASGDCAERQWDFLGLEMPQWLLGIFIAYLIVAVLVVISQPFKAKKRDLFGR
B1: binds.
